The text below walks through data of paper PMC5059666 (2016).

The target of assay [1] is feline IgM-Fc pentamer (FLAG-tagged feline IgM-Fc with Myc-tagged feline IgJ). Briefly: immunoblotting (non-reducing conditions) of IgM-Fc bound AIM, quantified using NIH ImageJ. Conditions: supernatant after a co-culture of feline Fc-expressing HEK293T cells and cells expressing wild-type, chimeric, or mutant feline AIM; parent: est. 1; read off a plot. In general terms: Immunoblotting shows a protein as a band on a membrane.

The target in assay [2] is feline IgM-Fc pentamer (FLAG-tagged feline IgM-Fc with Myc-tagged feline IgJ) (cat). The experiment in a line: SPR; Biacore T100, 25 °C; IgM-Fc pentamers amine-coupled on a CM5 chip (1000 RU), BSA reference cell; AIM as analyte 50 nM to 5 μM in D-PBS(-) pH 7.4, single-cycle kinetics, heterogeneous ligand model. On the technique in general: Surface plasmon resonance follows binding to a sensor surface in real time, without labels.

Assay [3] has as its target T1, mouse IgM-Fc pentamer (FLAG-IgM-Fc with IgJ-Myc) (mouse, UniProt P01872 1-454; P01592 22-159).
T1 chain 1: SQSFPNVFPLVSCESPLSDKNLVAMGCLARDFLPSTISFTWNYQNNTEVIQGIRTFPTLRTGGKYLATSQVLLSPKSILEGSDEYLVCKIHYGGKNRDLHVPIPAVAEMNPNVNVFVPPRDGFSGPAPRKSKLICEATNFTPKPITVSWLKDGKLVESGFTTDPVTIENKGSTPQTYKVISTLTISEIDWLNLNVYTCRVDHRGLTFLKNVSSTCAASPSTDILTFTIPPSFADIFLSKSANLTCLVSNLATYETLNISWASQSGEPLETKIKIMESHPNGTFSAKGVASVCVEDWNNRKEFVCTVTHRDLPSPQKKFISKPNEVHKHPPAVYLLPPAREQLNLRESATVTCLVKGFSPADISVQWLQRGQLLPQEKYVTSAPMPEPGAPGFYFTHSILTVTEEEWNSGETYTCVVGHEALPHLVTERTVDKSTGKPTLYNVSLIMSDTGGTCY
T1 chain 2: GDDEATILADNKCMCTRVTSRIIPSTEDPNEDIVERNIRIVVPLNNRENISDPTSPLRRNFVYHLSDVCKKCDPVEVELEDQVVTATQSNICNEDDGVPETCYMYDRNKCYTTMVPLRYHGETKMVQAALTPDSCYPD
The experiment in a line: SPR.

Assay [4] addresses T1, mouse IgM-Fc pentamer (FLAG-IgM-Fc with …). Briefly: SPR.
Assay [5] deals with mouse IgM-Fc pentamer (FLAG-IgM-Fc with IgJ-Myc) (mouse) (UniProt P01872). Briefly: SPR; Biacore T100, 25 °C; IgM-Fc pentamers amine-coupled on a CM5 chip (1000 RU), BSA reference cell; AIM as analyte 50 nM to 5 μM in D-PBS(-) pH 7.4, single-cycle kinetics, heterogeneous ligand model.

Turning to “recombinant feline AIM (3-SRCR) (from UniProt A0A1E1GEY0) R299K; R300I; R338K”, the ratio to parent in assay [1] is 0.58.
As for “recombinant feline AIM (4-SRCR) (from UniProt A0A1E1GEY0 20-355) (natural protein)”, in assay [2], the off-rate constant (koff) (usually the first-order rate constant of dissociation) came out at 4.38e-05 s⁻¹ and the kon (in general, the rate constant with which the complex forms) was determined as 9.52 M⁻¹ s⁻¹.

B1: recombinant feline AIM (3-SRCR) (natural protein)
chain: SFSRVRLVGGDHRCEGRVELQQDDEWVTVCDDYWNMDSVAVLCRELGCGAARKTMSGTVYGPVTPKDQKVFIHLFRCNGIEESLSQCEREDAIGCSHVEDAGAVCEPIYTGPGILGPESVRLADGPGRCQGRVEVKFRGEWSSVCQAGWSFAAAKVVCRQLGCGRATLTRRGCNKATQGQGAIWQRKASCSGQEVSLQDCLSEVWEHNCTHNEDVWVECEDPFALKLVGGRSHCEGRLEVLHKGEWGSVCDDGWGQDADRVVCRQLGCGQPLSPPVKVRRRFGPGVGRIWLDDVKCSGKEPSLEQCLHRSWGYHNCNHREDVAVVCEEQQSGLPDA
Consider B1, for which the figures for the koff in assay [3] and in assay [2] were 0.000106 s⁻¹ and 5.65e-05 s⁻¹, respectively. In addition, the figures for the Kd in assay [4] and in assay [2] were 14.6 nM and 5.97 nM, respectively. In addition, in assay [2], the on-rate constant (kon) turned out to be 9460 M⁻¹ s⁻¹.

B2: recombinant mouse AIM (natural protein)
chain: ESPTKVQLVGGAHRCEGRVEVEHNGQWGTVCDDGWDRRDVAVVCRELNCGAVIQTPRGASYQPPASEQRVLIQGVDCNGTEDTLAQCELNYDVFDCSHEEDAGAQCENPDSDLLFIPEDVRLVDGPGHCQGRVEVLHQSQWSTVCKAGWNLQVSKVVCRQLGCGRALLTYGSCNKNTQGKGPIWMGKMSCSGQEANLRSCLLSRLENNCTHGEDTWMECEDPFELKLVGGDTPCSGRLEVLHKGSWGSVCDDNWGEKEDQVVCKQLGCGKSLHPSPKTRKIYGPGAGRIWLDDVNCSGKEQSLEFCRHRLWGYHDCTHKEDVEVICTDFDV
Take B2: in assay [5], the Kd (commonly the free concentration of one partner at which half of the binding sites on the other are occupied at equilibrium, for simple one-to-one binding) was 5820 nM; the koff was found to be 0.0223 s⁻¹; the kon amounted to 3830 M⁻¹ s⁻¹.
